From publication PMC8452627 come the findings set out here.

In one assay the target is human FcRn (human) (UniProt P55899). Briefly: SPR; steady-state equilibrium binding assay on ProteOn; human FcRn at pH 6. Background: SPR reads the build-up and loss of mass on a sensor chip optically.
The target in another assay is human FcγRIIa (human) (UniProt P12318). Briefly: SPR; steady-state equilibrium binding assay on ProteOn; human Fcγ receptors.
Chain of UniProt P12318 (P12318 34-317): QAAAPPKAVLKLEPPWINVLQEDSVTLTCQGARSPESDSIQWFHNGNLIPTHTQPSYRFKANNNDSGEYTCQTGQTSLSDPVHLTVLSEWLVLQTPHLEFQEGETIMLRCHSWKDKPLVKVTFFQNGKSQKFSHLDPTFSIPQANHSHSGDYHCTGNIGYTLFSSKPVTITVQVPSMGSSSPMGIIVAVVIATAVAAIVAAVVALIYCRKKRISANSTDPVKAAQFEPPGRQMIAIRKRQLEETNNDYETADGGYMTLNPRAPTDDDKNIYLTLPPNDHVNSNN

Chain of UniProt P55899 (P55899 24-365): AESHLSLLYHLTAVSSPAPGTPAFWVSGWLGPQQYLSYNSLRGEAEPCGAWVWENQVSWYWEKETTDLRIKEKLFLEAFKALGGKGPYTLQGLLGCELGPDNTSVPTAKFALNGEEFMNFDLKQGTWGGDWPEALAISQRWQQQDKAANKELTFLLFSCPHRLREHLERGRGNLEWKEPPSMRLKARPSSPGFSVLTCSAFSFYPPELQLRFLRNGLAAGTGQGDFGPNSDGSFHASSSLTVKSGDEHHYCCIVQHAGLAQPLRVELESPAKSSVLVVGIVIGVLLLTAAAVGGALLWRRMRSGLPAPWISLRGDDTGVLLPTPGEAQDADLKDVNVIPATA

As for “isotype control of human IgG4 S228P (antibody)”, the Kd with human FcRn (human) was 6.2 µM; with human FcγRIIa (human), 1.4 µM.

What is called Kd is the equilibrium constant for the complex coming apart.
